The target of the assay is AAV9 viral particles (adeno-associated virus 9). The assay can be described thus: SPR (Biacore 8K+), biotinylated ligand on SA chip (4128 RU), AAV9 2E12 vp/ml. (In general: Surface plasmon resonance follows binding to a sensor surface in real time, without labels.)

In turn, “CaptureSelect Biotin Anti-AAV9 Conjugate (ThermoFisher Scientific)” gave an AAV9 capacity, 2E12 vp/ml (RU) of 8860 RU.

The record behind these values is patent EP4541814A1.
